The source of these data is patent publication US20240400654A1.

Values joined by “and” are separate entries in the source; they are usually repeats but may differ in a detail not shown here. Equal entries are not always repeated.

First the molecules themselves.
B1: KB001 mouse Fab VH Y32W (Fab, V domains shown)
VH: EVQLKQSGPGLVAPSQSLSITCTVSGFSLSIWSVHWVRQPPGKGLEWLGMIWGGGSSDYNSALKSRLSISKDNSKSQVFLKMNSLQTDDTAMYYCARNGNFYAMDYWGQGTSVTVSS
VL: QIVLTQSPAIMSASLGERVTMTCTASSSVSSSFLHWYQQKPGSSPQLWIYSTSNLASGVPARFSGSGSGTSYSLTISSMEAEDAATYYCHQYHHSPYIYTFGGGTKLEIK
B2: KB001 mouse Fab VH G53S (Fab, V domains shown)
VH: EVQLKQSGPGLVAPSQSLSITCTVSGFSLSIYSVHWVRQPPGKGLEWLGMIWSGGSSDYNSALKSRLSISKDNSKSQVFLKMNSLQTDDTAMYYCARNGNFYAMDYWGQGTSVTVSS
VL: QIVLTQSPAIMSASLGERVTMTCTASSSVSSSFLHWYQQKPGSSPQLWIYSTSNLASGVPARFSGSGSGTSYSLTISSMEAEDAATYYCHQYHHSPYIYTFGGGTKLEIK
B3: KB001 mouse Fab VH I51Q/M92I (Fab, V domains shown)
VH: EVQLKQSGPGLVAPSQSLSITCTVSGFSLSIYSVHWVRQPPGKGLEWLGMQWGGGSSDYNSALKSRLSISKDNSKSQVFLKMNSLQTDDTAIYYCARNGNFYAMDYWGQGTSVTVSS
VL: QIVLTQSPAIMSASLGERVTMTCTASSSVSSSFLHWYQQKPGSSPQLWIYSTSNLASGVPARFSGSGSGTSYSLTISSMEAEDAATYYCHQYHHSPYIYTFGGGTKLEIK
B4: KB001 mouse Fab VH G55N (Fab, V domains shown)
VH: EVQLKQSGPGLVAPSQSLSITCTVSGFSLSIYSVHWVRQPPGKGLEWLGMIWGGNSSDYNSALKSRLSISKDNSKSQVFLKMNSLQTDDTAMYYCARNGNFYAMDYWGQGTSVTVSS
VL: QIVLTQSPAIMSASLGERVTMTCTASSSVSSSFLHWYQQKPGSSPQLWIYSTSNLASGVPARFSGSGSGTSYSLTISSMEAEDAATYYCHQYHHSPYIYTFGGGTKLEIK
B5: KB001 mouse Fab VH S56P (Fab, V domains shown)
VH: EVQLKQSGPGLVAPSQSLSITCTVSGFSLSIYSVHWVRQPPGKGLEWLGMIWGGGPSDYNSALKSRLSISKDNSKSQVFLKMNSLQTDDTAMYYCARNGNFYAMDYWGQGTSVTVSS
VL: QIVLTQSPAIMSASLGERVTMTCTASSSVSSSFLHWYQQKPGSSPQLWIYSTSNLASGVPARFSGSGSGTSYSLTISSMEAEDAATYYCHQYHHSPYIYTFGGGTKLEIK
B6: KB001 mouse Fab VH S56L (Fab, V domains shown)
VH: EVQLKQSGPGLVAPSQSLSITCTVSGFSLSIYSVHWVRQPPGKGLEWLGMIWGGGLSDYNSALKSRLSISKDNSKSQVFLKMNSLQTDDTAMYYCARNGNFYAMDYWGQGTSVTVSS
VL: QIVLTQSPAIMSASLGERVTMTCTASSSVSSSFLHWYQQKPGSSPQLWIYSTSNLASGVPARFSGSGSGTSYSLTISSMEAEDAATYYCHQYHHSPYIYTFGGGTKLEIK
B7: KB001 mouse Fab VH G55D (Fab, V domains shown)
VH: EVQLKQSGPGLVAPSQSLSITCTVSGFSLSIYSVHWVRQPPGKGLEWLGMIWGGDSSDYNSALKSRLSISKDNSKSQVFLKMNSLQTDDTAMYYCARNGNFYAMDYWGQGTSVTVSS
VL: QIVLTQSPAIMSASLGERVTMTCTASSSVSSSFLHWYQQKPGSSPQLWIYSTSNLASGVPARFSGSGSGTSYSLTISSMEAEDAATYYCHQYHHSPYIYTFGGGTKLEIK
B8: KB001 mouse Fab VH Y32N (Fab, V domains shown)
VH: EVQLKQSGPGLVAPSQSLSITCTVSGFSLSINSVHWVRQPPGKGLEWLGMIWGGGSSDYNSALKSRLSISKDNSKSQVFLKMNSLQTDDTAMYYCARNGNFYAMDYWGQGTSVTVSS
VL: QIVLTQSPAIMSASLGERVTMTCTASSSVSSSFLHWYQQKPGSSPQLWIYSTSNLASGVPARFSGSGSGTSYSLTISSMEAEDAATYYCHQYHHSPYIYTFGGGTKLEIK
B9: KB001 mouse Fab VH S56E (Fab, V domains shown)
VH: EVQLKQSGPGLVAPSQSLSITCTVSGFSLSIYSVHWVRQPPGKGLEWLGMIWGGGESDYNSALKSRLSISKDNSKSQVFLKMNSLQTDDTAMYYCARNGNFYAMDYWGQGTSVTVSS
VL: QIVLTQSPAIMSASLGERVTMTCTASSSVSSSFLHWYQQKPGSSPQLWIYSTSNLASGVPARFSGSGSGTSYSLTISSMEAEDAATYYCHQYHHSPYIYTFGGGTKLEIK
B10: KB001 mouse Fab VH I51V (Fab, V domains shown)
VH: EVQLKQSGPGLVAPSQSLSITCTVSGFSLSIYSVHWVRQPPGKGLEWLGMVWGGGSSDYNSALKSRLSISKDNSKSQVFLKMNSLQTDDTAMYYCARNGNFYAMDYWGQGTSVTVSS
VL: QIVLTQSPAIMSASLGERVTMTCTASSSVSSSFLHWYQQKPGSSPQLWIYSTSNLASGVPARFSGSGSGTSYSLTISSMEAEDAATYYCHQYHHSPYIYTFGGGTKLEIK
B11: KB001 mouse Fab VH H35V (Fab, V domains shown)
VH: EVQLKQSGPGLVAPSQSLSITCTVSGFSLSIYSVVWVRQPPGKGLEWLGMIWGGGSSDYNSALKSRLSISKDNSKSQVFLKMNSLQTDDTAMYYCARNGNFYAMDYWGQGTSVTVSS
VL: QIVLTQSPAIMSASLGERVTMTCTASSSVSSSFLHWYQQKPGSSPQLWIYSTSNLASGVPARFSGSGSGTSYSLTISSMEAEDAATYYCHQYHHSPYIYTFGGGTKLEIK
B12: KB001 mouse Fab VH S56N (Fab, V domains shown)
VH: EVQLKQSGPGLVAPSQSLSITCTVSGFSLSIYSVHWVRQPPGKGLEWLGMIWGGGNSDYNSALKSRLSISKDNSKSQVFLKMNSLQTDDTAMYYCARNGNFYAMDYWGQGTSVTVSS
VL: QIVLTQSPAIMSASLGERVTMTCTASSSVSSSFLHWYQQKPGSSPQLWIYSTSNLASGVPARFSGSGSGTSYSLTISSMEAEDAATYYCHQYHHSPYIYTFGGGTKLEIK
B13: KB001 mouse Fab VH S57R (Fab, V domains shown)
VH: EVQLKQSGPGLVAPSQSLSITCTVSGFSLSIYSVHWVRQPPGKGLEWLGMIWGGGSRDYNSALKSRLSISKDNSKSQVFLKMNSLQTDDTAMYYCARNGNFYAMDYWGQGTSVTVSS
VL: QIVLTQSPAIMSASLGERVTMTCTASSSVSSSFLHWYQQKPGSSPQLWIYSTSNLASGVPARFSGSGSGTSYSLTISSMEAEDAATYYCHQYHHSPYIYTFGGGTKLEIK
B14: KB001 mouse Fab VH S57H (Fab, V domains shown)
VH: EVQLKQSGPGLVAPSQSLSITCTVSGFSLSIYSVHWVRQPPGKGLEWLGMIWGGGSHDYNSALKSRLSISKDNSKSQVFLKMNSLQTDDTAMYYCARNGNFYAMDYWGQGTSVTVSS
VL: QIVLTQSPAIMSASLGERVTMTCTASSSVSSSFLHWYQQKPGSSPQLWIYSTSNLASGVPARFSGSGSGTSYSLTISSMEAEDAATYYCHQYHHSPYIYTFGGGTKLEIK
B15: KB001 mouse Fab VH S56T (Fab, V domains shown)
VH: EVQLKQSGPGLVAPSQSLSITCTVSGFSLSIYSVHWVRQPPGKGLEWLGMIWGGGTSDYNSALKSRLSISKDNSKSQVFLKMNSLQTDDTAMYYCARNGNFYAMDYWGQGTSVTVSS
VL: QIVLTQSPAIMSASLGERVTMTCTASSSVSSSFLHWYQQKPGSSPQLWIYSTSNLASGVPARFSGSGSGTSYSLTISSMEAEDAATYYCHQYHHSPYIYTFGGGTKLEIK
B16: KB001 mouse Fab VH Y32F (Fab, V domains shown)
VH: EVQLKQSGPGLVAPSQSLSITCTVSGFSLSIFSVHWVRQPPGKGLEWLGMIWGGGSSDYNSALKSRLSISKDNSKSQVFLKMNSLQTDDTAMYYCARNGNFYAMDYWGQGTSVTVSS
VL: QIVLTQSPAIMSASLGERVTMTCTASSSVSSSFLHWYQQKPGSSPQLWIYSTSNLASGVPARFSGSGSGTSYSLTISSMEAEDAATYYCHQYHHSPYIYTFGGGTKLEIK
B17: KB001 mouse Fab VH S56M (Fab, V domains shown)
VH: EVQLKQSGPGLVAPSQSLSITCTVSGFSLSIYSVHWVRQPPGKGLEWLGMIWGGGMSDYNSALKSRLSISKDNSKSQVFLKMNSLQTDDTAMYYCARNGNFYAMDYWGQGTSVTVSS
VL: QIVLTQSPAIMSASLGERVTMTCTASSSVSSSFLHWYQQKPGSSPQLWIYSTSNLASGVPARFSGSGSGTSYSLTISSMEAEDAATYYCHQYHHSPYIYTFGGGTKLEIK
B18: KB001 mouse Fab VH G53P (Fab, V domains shown)
VH: EVQLKQSGPGLVAPSQSLSITCTVSGFSLSIYSVHWVRQPPGKGLEWLGMIWPGGSSDYNSALKSRLSISKDNSKSQVFLKMNSLQTDDTAMYYCARNGNFYAMDYWGQGTSVTVSS
VL: QIVLTQSPAIMSASLGERVTMTCTASSSVSSSFLHWYQQKPGSSPQLWIYSTSNLASGVPARFSGSGSGTSYSLTISSMEAEDAATYYCHQYHHSPYIYTFGGGTKLEIK
B19: KB001 mouse Fab VH V34M (Fab, V domains shown)
VH: EVQLKQSGPGLVAPSQSLSITCTVSGFSLSIYSMHWVRQPPGKGLEWLGMIWGGGSSDYNSALKSRLSISKDNSKSQVFLKMNSLQTDDTAMYYCARNGNFYAMDYWGQGTSVTVSS
VL: QIVLTQSPAIMSASLGERVTMTCTASSSVSSSFLHWYQQKPGSSPQLWIYSTSNLASGVPARFSGSGSGTSYSLTISSMEAEDAATYYCHQYHHSPYIYTFGGGTKLEIK

This test addresses HRgpA-6H (Porphyromonas gingivalis) (UniProt P28784). Nature of the test: ELISA, coated HRgpA-6H. In general terms: An ELISA detects its analyte on a solid surface through an enzyme-linked reagent.
Sequence of UniProt P28784 (P28784 228-860 limits assumed): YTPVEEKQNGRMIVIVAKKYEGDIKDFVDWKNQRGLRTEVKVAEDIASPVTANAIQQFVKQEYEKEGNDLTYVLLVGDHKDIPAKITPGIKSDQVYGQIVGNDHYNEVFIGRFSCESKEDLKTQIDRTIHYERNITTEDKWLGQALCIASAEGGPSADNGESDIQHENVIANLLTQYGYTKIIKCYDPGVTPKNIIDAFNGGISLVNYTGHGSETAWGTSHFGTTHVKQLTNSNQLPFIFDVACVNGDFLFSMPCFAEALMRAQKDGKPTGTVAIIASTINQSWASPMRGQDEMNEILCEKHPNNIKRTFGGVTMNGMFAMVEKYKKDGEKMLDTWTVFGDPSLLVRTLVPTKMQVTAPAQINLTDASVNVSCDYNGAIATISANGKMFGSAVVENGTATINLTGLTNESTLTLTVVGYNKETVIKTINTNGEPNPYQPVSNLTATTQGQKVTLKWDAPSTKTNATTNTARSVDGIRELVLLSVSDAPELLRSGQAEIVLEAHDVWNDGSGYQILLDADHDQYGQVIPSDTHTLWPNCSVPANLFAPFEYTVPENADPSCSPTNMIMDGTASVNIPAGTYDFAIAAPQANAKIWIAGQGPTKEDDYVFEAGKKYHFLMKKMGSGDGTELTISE
As to B1, the OD450 nm was 0.731 and 0.718 and 0.747; the Ratio OD(Variant)/OD(WT) is 0.864 and 0.848 and 0.882.

As to B2, the OD450 nm is 0.686 and the Ratio OD(Variant)/OD(WT) is 0.861.

B3: the OD450 nm turned out to be 0.722 and the Ratio OD(Variant)/OD(WT) stood at 0.817.

B4: the OD450 nm worked out at 0.652 and the Ratio OD(Variant)/OD(WT) turned out to be 0.81.

B5: the OD450 nm was 0.855 and 0.788 and 0.824; the Ratio OD(Variant)/OD(WT) was 0.972 and 0.896 and 0.937.

Turning to B6, the OD450 nm amounted to 0.71 and the Ratio OD(Variant)/OD(WT) was 0.807.

Regarding B7, the OD450 nm worked out at 0.697 and the Ratio OD(Variant)/OD(WT) was found to be 0.866.

In the case of B8, the OD450 nm was 0.826 and 0.775; the Ratio OD(Variant)/OD(WT) is 0.976 and 0.916.

B9: the OD450 nm is 0.772 and 0.713; the Ratio OD(Variant)/OD(WT) was 0.878 and 0.811.

As to B10, the OD450 nm stood at 0.798 and the Ratio OD(Variant)/OD(WT) came to 0.903.

On to B11, for which the OD450 nm turned out to be 0.706 and the Ratio OD(Variant)/OD(WT) amounted to 0.856.

For B12, the OD450 nm was 0.759 and 0.743; the Ratio OD(Variant)/OD(WT) is 0.863 and 0.845.

With B13, the OD450 nm amounted to 0.796 and the Ratio OD(Variant)/OD(WT) came out at 0.905.

On to B14, for which the OD450 nm came to 0.8 and the Ratio OD(Variant)/OD(WT) worked out at 0.91.

As for B15, the OD450 nm was 0.838 and 0.844 and 0.853; the Ratio OD(Variant)/OD(WT) was 0.953 and 0.96 and 0.97.

For B16, the OD450 nm was 0.814 and 0.807; the Ratio OD(Variant)/OD(WT) was 0.962 and 0.953.

As to B17, the OD450 nm is 0.809 and the Ratio OD(Variant)/OD(WT) is 0.92.

With B18, the OD450 nm is 0.754 and 0.716; the Ratio OD(Variant)/OD(WT) was 0.947 and 0.899.

For B19, the OD450 nm is 0.793 and 0.791; the Ratio OD(Variant)/OD(WT) was 0.962 and 0.959.
